Target: T1, SV40 large T-antigen (SV40, UniProt P03070 87-708)
T1 construct: Control partner in the yeast-two-hybrid assay; fusion construct not described
Test: targeted yeast-two-hybrid, negative control

T1 sequence (P03070 87-708 limits assumed): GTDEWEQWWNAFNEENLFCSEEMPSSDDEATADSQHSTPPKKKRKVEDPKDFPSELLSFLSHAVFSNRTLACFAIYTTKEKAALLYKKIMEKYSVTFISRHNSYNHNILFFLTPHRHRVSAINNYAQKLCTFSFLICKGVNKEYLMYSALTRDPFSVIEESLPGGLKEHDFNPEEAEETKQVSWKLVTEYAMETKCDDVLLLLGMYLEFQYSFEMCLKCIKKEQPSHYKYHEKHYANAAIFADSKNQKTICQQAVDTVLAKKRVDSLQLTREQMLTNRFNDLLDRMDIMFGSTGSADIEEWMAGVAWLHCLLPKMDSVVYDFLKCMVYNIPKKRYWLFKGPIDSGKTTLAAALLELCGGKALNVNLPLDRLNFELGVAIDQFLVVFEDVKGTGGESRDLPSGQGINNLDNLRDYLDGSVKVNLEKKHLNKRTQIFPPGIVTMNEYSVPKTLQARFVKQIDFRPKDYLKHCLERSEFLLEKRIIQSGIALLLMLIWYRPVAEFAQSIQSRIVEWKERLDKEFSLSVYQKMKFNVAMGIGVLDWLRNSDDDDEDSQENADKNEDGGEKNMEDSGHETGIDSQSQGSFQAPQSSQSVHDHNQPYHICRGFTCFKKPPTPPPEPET

B1: human Lamin C (other)
chain: SEEVVSREVSGIKAAYEAELGDARKTLDSVAKERARLQLELSKVREEFKELKARNTKKEGDLIAAQARLKDLEALLNSKEAALSTALSEKRTLEGELHDLRGQVAKLEAALGEAKKQLQDEMLRRVDAENRLQTMKEELDFQKNIYSEELRETKRRHETRLVEID
notes: Negative-control partner in the yeast-two-hybrid assay; fusion construct not described
**Q.** Does B1 bind?
**A.** no binding

From patent publication US20060223099A1 (BAYLOR COLLEGE OF MEDICINE, published 2006)
